Measured values: the supplement of paper PMC9170038

Tested on: MS2 coat protein
Test: apparent KD of MS2 coat protein; designed switch direction (-1 OFF switch, 1 ON switch): -1; higher = weaker reporter binding
In short: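 Designed RNA switches with common flanks were transcribed on Illumina chips by stalled E. coli RNA polymerase and titrated with SNAP-549-labelled MS2 coat protein, from 0.7 or 1.5 nM doubling to 3 µM, in Tris-HCl pH 7.5 buffer with KCl, MgCl2, BSA, DTT, tRNA and Tween-20. Steps lasted 0.8–1.5 h (lowest) to 10–20 min (highest). Titrations ran without input, with 200 uM small-molecule ligand, or with an oligonucleotide input. Normalised cluster fluorescence was curve-fitted, and apparent KD is the per-design median over clusters.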

[1] = Eterna round: R95, input ligand: microRNA oligo, concentration not stated
[2] = input ligand: microRNA oligo, concentration not stated
[3] = Eterna round: R95, input ligand: FMN 200 uM
[4] = Eterna round: R95, input ligand: none

GUGUGCAGAGGAUAUACAGAGGAAAAGAAAAGAGAAGGGAGACAUGAGGAUCACCCAUGUAGAAGGCUGAGUGU [Excluse me!! 20 - Jieux - Exclusion 2] (puzzle: Exclusion 2)
apparent KD of MS2 coat protein [1]: 63.4 nM

AGCCAAGCAGGAUAUAUCCGGGAUAACAUGAGGAUCACCCAUGUGACCGCUUGAUAUCCUAUAGAAGGGCUUGGGA [Mod of ViennaUCT 24 - Jieux - Exclusion 5] (Eterna round: R97, puzzle: Exclusion 5)
apparent KD of MS2 coat protein (input ligand: FMN 200 uM): 54.8 nM | apparent KD of MS2 coat protein (input ligand: none): 24.9 nM

UAUUAACAUGUAGGAUAUCUGCACGAUUAGUGCAGAGAAGGACAUGAGGAUCACCCAUGUAGAUCAUAAUAAUUUAAUUUAAUU [ENG1/6-D1] (Eterna round: R96, puzzle: Exclusion NG 1)
apparent KD of MS2 coat protein [2]: 106 nM

AGUUGGCGAGGAUAUACAUGAGGAUCACCCAUGUGAAAGAGAAGAGUGAGGAAGAAAAGUAGAAGGCGCUGACA [Mat - Exclusion 3 - Mod of Salish D39] (puzzle: Exclusion 3)
apparent KD of MS2 coat protein [3]: 135 nM | apparent KD of MS2 coat protein [1]: 69.3 nM | apparent KD of MS2 coat protein [4]: 75.2 nM

GGACUGAAGCUAGGAUAUCCCGUGUGAUCACGAGGAGAAGGAGCGCACGGGUAGUCAACAUGAGGAUCACCCAUGUACAGUCCA [Laditiqu] (Eterna round: R96, puzzle: Exclusion NG 1)
apparent KD of MS2 coat protein (input ligand: FMN 200 uM): 50.1 nM | apparent KD of MS2 coat protein [2]: 15.4 nM | apparent KD of MS2 coat protein (input ligand: none): 20.6 nM

CGAUGAGGAGUGAGGAUAUCGUGUUCGAAAGAACGUGAGAAGGCACAUGAGGAUCACCCAUGUGAUCCUCAUGG [Omei Ex4B A23] (Eterna round: R97, puzzle: Brourd's mod of Exclusion 4)
apparent KD of MS2 coat protein (input ligand: FMN 200 uM): 1030 nM | apparent KD of MS2 coat protein (input ligand: none): 164 nM

UUAGUGUGAGGAUAUGGUAAAGAUAAGAUGAUGAAAGAACUCCAGAAGGCACAUGAGGAUCACCCAUGUAGAUG [JL-ex4-2.13 Jieux mod] (puzzle: Exclusion 4)
apparent KD of MS2 coat protein [3]: 67.4 nM | apparent KD of MS2 coat protein [1]: 35.4 nM | apparent KD of MS2 coat protein [4]: 30.6 nM

UAUUAGCAAGCGAGAUCCCACAUGAGGAUCACCCAUGUAAUAAAAGCAUCCAGAAUUACUGGGUGCGCUCGUCUUAU [Winner reversed engineered 14] (Eterna round: R97, puzzle: Sensor, turn-off variant 1)
apparent KD of MS2 coat protein (input ligand: FMN 200 uM): 47.7 nM | apparent KD of MS2 coat protein (input ligand: none): 49.5 nM

UUAACAUGCUGGUGAUCAUACAUGAGGAUCACCCAUGUAACAAGCUUUUUGCUCGUCUUAUAAGAUUACUAGUAUGU [Stov1/10-A1] (Eterna round: R97, puzzle: Sensor, turn-off variant 1)
apparent KD of MS2 coat protein (input ligand: FMN 200 uM): 24.2 nM | apparent KD of MS2 coat protein (input ligand: none): 26.4 nM

CCAGGCAGUGUGAGGAUAUGCUGGUCCUUGGAUCAGCAGAAGGCACAUGAGGAUCACCCAUGUGAAUAGCUUGG [JL bmx4 3.25] (puzzle: Brourd's mod of Exclusion 4)
apparent KD of MS2 coat protein [3]: 105 nM | apparent KD of MS2 coat protein [1]: 20.5 nM | apparent KD of MS2 coat protein [4]: 21.8 nM

GCUUGUGGGCAAGGAUAUCCUACGCUGUUCUGGUUCGUGUCUGUCACAUGAGGAUCACCCAUGUGGGAGAAGGUGCCUUUGGUG [Design 63] (Eterna round: R96, puzzle: Exclusion NG 2)
apparent KD of MS2 coat protein (input ligand: FMN 200 uM): 13.7 nM | apparent KD of MS2 coat protein [2]: 12.7 nM | apparent KD of MS2 coat protein (input ligand: none): 16.2 nM

UAGUUAAACACAGGAUAUCGCCUCUUAUUACAUGAGGAUCACCCAUGUUUAGUUAGUUACAUGUUCGAGAAGGGUGAAGUAGUU [JR_ExcNG2_Sub041] (Eterna round: R96, puzzle: Exclusion NG 2)
apparent KD of MS2 coat protein (input ligand: FMN 200 uM): 793 nM | apparent KD of MS2 coat protein [2]: 1300 nM | apparent KD of MS2 coat protein (input ligand: none): 555 nM

UUUAAUUUUUUUUUUUUACAAGCUUUUUGCUCGUCUUAUACAUGAGGAUCACCCAUGUAAAUGGAGGAUAAAUUAUC [JMF 29] (puzzle: Sensor v3, turn-off variant 2)
apparent KD of MS2 coat protein [3]: 22.4 nM | apparent KD of MS2 coat protein [1]: 41.1 nM | apparent KD of MS2 coat protein [4]: 19.7 nM

CUUUUGUGAGGAUAUUAGUAGUAAAUAAUUAAAAUUACUACUGAGAAGGCACAUGAGGAUCACCCAUGUUCCUC [salish99_ex4_r3_056] (Eterna round: R96, puzzle: Exclusion 4)
apparent KD of MS2 coat protein (input ligand: FMN 200 uM): 489 nM | apparent KD of MS2 coat protein [2]: 33.2 nM | apparent KD of MS2 coat protein (input ligand: none): 37.4 nM

GUUGGAUGAGGAUAUCGAGGUUAGUACAUGAGGAUCACCCAUGUUAUCCAGGUGUCGGUUCGAGAAGGCAUUGGAC [LRO-Ex5-14] (puzzle: Exclusion 5)
apparent KD of MS2 coat protein [1]: 32.9 nM

CCAAGCUUUUUCCUUAACAACAUGAGGAUCACCCAUGUGUAAGCUAUUCGGUUUGGGCUCUUUAGUGCUCGUCUUAU [malcom mod] (Eterna round: R97, puzzle: Sensor, turn-off variant 1)
apparent KD of MS2 coat protein (input ligand: FMN 200 uM): 19.2 nM | apparent KD of MS2 coat protein (input ligand: none): 19.7 nM

UCUCGACAUGAGGAUCACCCAUGUCAGGAUAUUGUGUUUGAGGUUUUUUACCUUUUGACAAGAAGGGAUGUGUG [LRO-Excl1-22] (puzzle: Exclusion 1)
apparent KD of MS2 coat protein [1]: 28.6 nM

GUCGCUUUUUGUUUGUUUUACAUGAGGAUCACCCAUGUACGUUGGUUACAAUAAAGUUCCGUGGCGGAUCAAUCUGA [Eternabot (L1) Solution 12] (Eterna round: R97, puzzle: Sensor, turn-off variant 1)
apparent KD of MS2 coat protein (input ligand: FMN 200 uM): 24.9 nM | apparent KD of MS2 coat protein (input ligand: none): 28.2 nM

CUAGCUUCGGCUAGUACAAGCUUUUUGCUCGUCUUAUUAACAUGAGGAUCACCCAUGUCAAAGAGACCUCAUGUAUU [Sensor v3 - turn-off variant 2 - 2] (puzzle: Sensor v3, turn-off variant 2)
apparent KD of MS2 coat protein [3]: 347 nM | apparent KD of MS2 coat protein [1]: 15.5 nM | apparent KD of MS2 coat protein [4]: 572 nM

CGUGUAGGAGUAGGAUAUGCGUCUAGACUACGAGCAGAAGGACUCCAGGACUUGAGGAUCACCCAAGUGCGUCCCGAGCCGUAG [Mutated MS2 EX1.23] (Eterna round: R96, puzzle: Exclusion NG 1)
apparent KD of MS2 coat protein (input ligand: FMN 200 uM): 11.9 nM | apparent KD of MS2 coat protein [2]: 11.7 nM | apparent KD of MS2 coat protein (input ligand: none): 12 nM

UUAUUUAGUGUGAGGAUAUGCUGGUCGAUAGAUCAGCAGAAGGCACAUGAGGAUCACCCAUGUAAUAUAUUAAU [Mat - Exclusion 4 - JL Mod - D33] (puzzle: Brourd's mod of Exclusion 4)
apparent KD of MS2 coat protein [3]: 395 nM | apparent KD of MS2 coat protein [1]: 50 nM | apparent KD of MS2 coat protein [4]: 72.7 nM

GUACUACGAGGAUAUAUAUAAUGGGAAGCCCAGGCCAUUGCACAUGAGGAUCACCCAUGUAGAAGGCGUGGUCA [Eternabot (L2) Solution 28] (Eterna round: R97, puzzle: Exclusion 2)
apparent KD of MS2 coat protein (input ligand: FMN 200 uM): 40.3 nM | apparent KD of MS2 coat protein (input ligand: none): 16.7 nM

CUUUUGUGAGGAUAUCAGUAGUAAAAAAAUAAAAUUACUACUGAGAAGGUACAUGAGGAUCACCCAUGUUCCUC [salish99_ex4_r3_031] (puzzle: Exclusion 4)
apparent KD of MS2 coat protein [1]: 15.1 nM

GUUCACGUAGGAUAUACGGUUGGUGUGCGCGAAGGCCUUUGACAUGAGGAUCACCCAUGUAGAAGGACGAUGAA [EX2 C.24] (Eterna round: R97, puzzle: Exclusion 2)
apparent KD of MS2 coat protein (input ligand: FMN 200 uM): 32.1 nM | apparent KD of MS2 coat protein (input ligand: none): 31 nM

GUCAGCUCGUGAGGAUAUGCACAUGAGGAUCACCCAUGUAAGAUCAAGCUGCUUCGGCAGCAAGUGCAGAAGGCACGAGCUGAU [ENG2/9-A3] (Eterna round: R96, puzzle: Exclusion NG 2)
apparent KD of MS2 coat protein (input ligand: FMN 200 uM): 148 nM | apparent KD of MS2 coat protein [2]: 179 nM | apparent KD of MS2 coat protein (input ligand: none): 210 nM
